Molecular target: T1, Fc-APRIL (UniProt O75888 105-250, limits assumed)
T1 construct: also called control protein Fc-APRIL; not shown: Fc portion; not described for this construct
T1 sequence (looked up): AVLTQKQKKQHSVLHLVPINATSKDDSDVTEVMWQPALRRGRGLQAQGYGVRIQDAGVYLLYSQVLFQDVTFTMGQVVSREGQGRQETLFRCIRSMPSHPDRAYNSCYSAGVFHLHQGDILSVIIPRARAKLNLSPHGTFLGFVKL
Assay: western blot under reducing conditions

B1: mAbEDA1-EctoD3 (antibody, mouse IgG1, V domains shown)
VH: QVQLHQSGAELARPGASVKLSCKASGYTFTSYGISWVKQRTGQGLEWIGEVYPRSGDTYYHDYFEGKATLTADKSSSTAYMELRSLTSEDSAVYFCARGDYADVWGTGTTVTVSS
VL: DIVLTQSPASLAVSLGQRATISCRASKSVSTFGNSYMLWYQQKPGQPPKLLIYLASNLESGVPARFSGSGSGTDFTLNIHPVEEEDAATYYCQNSRELPYTFGGGTKLEIKR
notes: also called EctoD3-biotin; EctoD3-biot
  binding result: no binding

— patent US20160075789A1 (EDIMER PHARMACEUTICALS, published 2016)
